Key:
[1] = molecular target: formyl-peptide receptors (FPRs) of CHO-K1 cells (Chinese hamster (endogenous in CHO-K1))
[2] = molecular target: formyl-peptide receptor (FPR) (human (endogenous in SKOV-3)) (UniProt P21462)
[3] = molecular target: formyl-peptide receptor (FPR) (human (endogenous in SKOV-3)) (UniProt P21462); remark: listed apart in the source
[4] = molecular target: formyl-peptide receptors (FPRs) of CHO-K1 cells (Chinese hamster (endogenous in CHO-K1)); remark: listed apart in the source

UniProt P21462, sequence (P21462 whole entry): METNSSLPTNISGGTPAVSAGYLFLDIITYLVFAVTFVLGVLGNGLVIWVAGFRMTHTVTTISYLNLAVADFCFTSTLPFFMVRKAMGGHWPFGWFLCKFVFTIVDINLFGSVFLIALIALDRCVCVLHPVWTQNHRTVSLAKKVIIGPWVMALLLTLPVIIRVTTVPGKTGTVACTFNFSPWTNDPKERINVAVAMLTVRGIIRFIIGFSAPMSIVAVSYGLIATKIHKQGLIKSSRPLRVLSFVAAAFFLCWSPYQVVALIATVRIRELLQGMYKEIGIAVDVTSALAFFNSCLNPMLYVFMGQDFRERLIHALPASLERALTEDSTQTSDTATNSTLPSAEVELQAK

With “truncated uPAR lacking the D1 domain and exposing the 84-95 sequence (uPARD2D3) on CHO-K1 cells (domain or fragment)” the reduction by 10 nM RERF peptide of the Cell Index of CHO-K1/D2D3 cells invading matrigel toward serum (xCELLigence, after 18 hrs) (% reduction of Cell Index) [1] was 83.

“urokinase receptor (uPAR) (from UniProt Q03405 23-305)” gave a reduction by 10 nM RERF peptide of the Cell Index of SKOV-3 cells invading matrigel toward serum (xCELLigence, 18 hrs); anti-uPAR84-95 polyclonal antibody reduced it by 50% (% reduction of Cell Index) [2] of 86 and a reduction of migration of SKOV-3 cells toward 10% FBS by RERF peptide, 10 fM to 10 pM (35% at 10 fM, 60% at 10 pM) (% reduction of cell migration) [3] of 60.

With “wild type, full length uPAR (D1D2D3) on CHO-K1 cells (from UniProt Q03405 23-305) (receptor)” the reduction by 10 nM RERF peptide of the Cell Index of CHO-K1/D1D2D3 cells invading matrigel toward serum (xCELLigence, after 18 hrs) (% reduction of Cell Index) [1] was 75.

B1: SRSRY peptide (uPAR 88-92, Ser-Arg-Ser-Arg-Tyr) (peptide)
peptide: SRSRY
Molecule B1 has a migration of wild type CHO-K1 cells toward 10 nM SRSRY (Boyden chamber, 4 hrs, 37°C), percent of basal (% of the basal cell migration) [4] of 177.
